We go through two molecules from PMC11543927, “Subtleties in Clathrin heavy chain binding boxes provide selectivity among adaptor proteins of budding yeast” (Nature Communications, 2024).

Common to all, as to conditions: both partners purified
For experiment [1], the target named is T1, ScChc-NTD Arrestin and W box mutant (Arr+W) (Saccharomyces cerevisiae, UniProt P22137 1-369, F26A | Q155A | Q195A | I197T | K251E).
T1 construct: Clathrin heavy chain N-terminal domain, Saccharomyces cerevisiae, residues 1-369, Arrestin and W box mutant
T1 sequence (looked up): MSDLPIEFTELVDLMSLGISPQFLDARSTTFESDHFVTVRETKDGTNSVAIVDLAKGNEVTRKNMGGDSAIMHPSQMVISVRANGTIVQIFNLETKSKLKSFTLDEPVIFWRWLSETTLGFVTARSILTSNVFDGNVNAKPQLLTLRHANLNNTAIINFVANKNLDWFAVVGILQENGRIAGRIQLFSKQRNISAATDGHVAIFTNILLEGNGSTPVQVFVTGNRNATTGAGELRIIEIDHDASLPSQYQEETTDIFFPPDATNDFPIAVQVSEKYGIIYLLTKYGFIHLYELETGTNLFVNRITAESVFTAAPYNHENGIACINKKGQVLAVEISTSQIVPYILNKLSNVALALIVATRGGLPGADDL
The experiment can be described thus: nanoDSF thermal shift; ScChc-NTD mutants 10 µM with Ent1 or Ent2 peptide, thermal ramp up to 80 °C; apparent KD from the Tm shift model. (In general: In DSF a fluorescence change marks the thermal transition of the protein.)

For experiment [2], the target named is T2, ScChc-NTD Clathrin and Arrestin box mutant (Cla+Arr) (Saccharomyces cerevisiae, UniProt P22137 1-369, K63E | I87D | Q89A | K98E | Q195A | I197T | K251E).
T2 construct: Clathrin heavy chain N-terminal domain, Saccharomyces cerevisiae, residues 1-369, Clathrin and Arrestin box mutant
T2 sequence (looked up): T1 sequence (looked up) with A26F, K63E, I87D, Q89A, K98E, A155Q
The description is as above.

Experiment [3] addresses T3, Saccharomyces cerevisiae clathrin heavy chain N-terminal domain (ScChc-NTD, 1-369) (Saccharomyces cerevisiae, UniProt P22137 1-369).
T3 construct: Clathrin heavy chain N-terminal domain, Saccharomyces cerevisiae, residues 1-369; pETM-30 vector with a His-GST tag and a TEV cleavage site; also called WT NTD; source: E. coli BL21 (DE3), purified (Ni-NTA, TEV cleavage, reverse Ni-NTA, SEC)
T3 sequence (looked up): T1 sequence (looked up) with A26F, A155Q, A195Q, T197I, E251K
Description: nanoDSF thermal shift; ScChc-NTD 8 µM incubated with eleven peptide concentrations (1:1 dilutions) for 15 min, heated 20-95 °C at 1 °C/min, SEC buffer (50 mM Tris pH 9, 150 mM NaCl, 0.5 mM TCEP); apparent KD from the Tm shift model, one to one binding assumed, global average over all boxes.

Positions count from the first letter of the chain named.

B1: Ent2 CBM peptide (GVSLIDL) (peptide)
peptide: GVSLIDL
notes: also called Ent2 peptide; source: synthetic peptide, bought: NovoProLabs
In the case of B1, in experiment [1], the binding result is reported as “binds”. Moreover, the “fold decrease in affinity against WT NTD” value in experiment [2] is about 5 fold. Besides, the Kd in experiment [3] was about 177 µM.

B2: Ent1 CBM peptide (GYTLIDL) (peptide)
peptide: GYTLIDL
notes: also called Ent1 peptide; source: synthetic peptide, bought: NovoProLabs
On to B2, for which the binding result in experiment [1] was “binds”. In addition, the Kd was about 2050 µM in experiment [2] and about 138 µM in experiment [3].
